From publication PMC10150487, “m^6A readers ECT2/ECT3/ECT4 enhance mRNA stability through direct recruitment of the poly(A) binding proteins in Arabidopsis” (Genome Biology, 2023) come the findings set out here.

For experiment [1], the target named is T1, GST-tagged full-length ECT2 (Arabidopsis thaliana, UniProt Q9LJE5 1-667).
T1 construct: also called GST-ECT2; Evolutionarily conserved C-terminal region 2
T1 sequence (looked up): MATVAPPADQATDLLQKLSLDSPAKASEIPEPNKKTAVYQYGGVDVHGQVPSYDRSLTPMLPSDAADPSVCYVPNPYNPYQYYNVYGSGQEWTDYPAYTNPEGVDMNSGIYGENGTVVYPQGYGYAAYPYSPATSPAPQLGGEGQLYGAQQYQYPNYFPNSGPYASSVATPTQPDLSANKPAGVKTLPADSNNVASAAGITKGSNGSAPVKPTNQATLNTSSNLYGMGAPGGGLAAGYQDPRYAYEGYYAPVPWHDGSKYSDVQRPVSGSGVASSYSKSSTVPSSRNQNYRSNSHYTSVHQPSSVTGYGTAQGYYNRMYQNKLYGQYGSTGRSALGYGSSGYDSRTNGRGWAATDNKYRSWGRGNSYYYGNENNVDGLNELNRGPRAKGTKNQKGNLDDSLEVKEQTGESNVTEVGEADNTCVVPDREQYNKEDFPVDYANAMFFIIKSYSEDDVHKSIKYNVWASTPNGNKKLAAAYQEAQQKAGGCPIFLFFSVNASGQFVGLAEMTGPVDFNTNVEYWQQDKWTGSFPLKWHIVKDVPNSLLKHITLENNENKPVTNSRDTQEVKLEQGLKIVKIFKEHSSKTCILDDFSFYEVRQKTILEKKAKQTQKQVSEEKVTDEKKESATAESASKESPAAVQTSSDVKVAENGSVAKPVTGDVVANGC
As to the kind of experiment: pull-down; GST pull-down: purified MBP-ECT3 and SUMO-ECT4 incubated with GST-ECT2 or GST alone, GST magnetic beads, immunoblot with anti-GST, anti-MBP and anti-SUMO. The settings on record: both partners purified. On the technique in general: In western blotting, separated proteins are transferred to a membrane and probed.

Experiment [2] addresses T1, GST-tagged full-length ECT2. Kind of experiment: pull-down; GST pull-down: 100 pmol pre-cleared MBP-PAB2 or MBP-PAB4 mixed with 100 pmol GST or GST-ECT2 (full length or fragments) and glutathione magnetic agarose beads, 2 h at 4 °C, IPP buffer (150 mM NaCl, 0.1% NP-40, 10 mM Tris pH 7.4, 0.5 mM DTT); immunoblot with anti-MBP and anti-GST. The settings on record: both partners purified.

B1: maltose-binding protein (MBP)-tagged ECT3 (natural protein, Arabidopsis thaliana, UniProt F4K1Z0 1-495, looked up)
chain: MANPDHVSDVLHNLSIDPTTKALAPDSETKLQGAYGGNGNDFLLNDELVEATKIGKPSLLSKDGGVTKDKGSNLKKLGYQSAAYNAKGSYGKGAYAYGYYPPAYQYPRHGYTGSYASGKTNLQYQYLTQQGRSAGNGQSYGGYMDNIYSNYGMCGPYTNGYGYGSYGYDSWKYMPNWYAVNNTYKPRNGYHGYGKENIEGLNEMNRGPRAKGFNSQDGSKVMAVSLKEQRVTETEKLSEDVSLLDPKDYNKIDFPETYTEAKFYVIKSYSEDDIHKSIKYSVWSSTPNGNKKLDASYNEAKQKSDGCPVFLLFSVNTSGQFVGLAEMVGPVDFNKTVEYWQQDKWIGCFPVKWHFVKDIPNSSLRHITLENNENKPVTNSRDTQEVKLEQGIKVIKIFKDHASKTCILDDFEFYENRQKIIQERKSKHLQIKKQTLVANADKGVMSKINLVKPQESTTASEDAAALGVAAEVTKESKVVKETELPVEKNAVATAC
notes: also called MBP-ECT3; source: Escherichia coli, purified recombinant protein
B1: the binding result in experiment [1] is “binds”.

B2: MBP-tagged PAB4 (natural protein, Arabidopsis thaliana, UniProt O22173 1-662, looked up)
chain: MAQVQAPSSHSPPPPAVVNDGAATASATPGIGVGGGGDGVTHGALCSLYVGDLDFNVTDSQLYDYFTEVCQVVSVRVCRDAATNTSLGYGYVNYSNTDDAEKAMQKLNYSYLNGKMIRITYSSRDSSARRSGVGNLFVKNLDKSVDNKTLHEAFSGCGTIVSCKVATDHMGQSRGYGFVQFDTEDSAKNAIEKLNGKVLNDKQIFVGPFLRKEERESAADKMKFTNVYVKNLSEATTDDELKTTFGQYGSISSAVVMRDGDGKSRCFGFVNFENPEDAARAVEALNGKKFDDKEWYVGKAQKKSERELELSRRYEQGSSDGGNKFDGLNLYVKNLDDTVTDEKLRELFAEFGTITSCKVMRDPSGTSKGSGFVAFSAASEASRVLNEMNGKMVGGKPLYVALAQRKEERRAKLQAQFSQMRPAFIPGVGPRMPIFTGGAPGLGQQIFYGQGPPPIIPHQPGFGYQPQLVPGMRPAFFGGPMMQPGQQGPRPGGRRSGDGPMRHQHQQPMPYMQPQMMPRGRGYRYPSGGRNMPDGPMPGGMVPVAYDMNVMPYSQPMSAGQLATSLANATPAQQRTLLGESLYPLVDQIESEHAAKVTGMLLEMDQTEVLHLLESPEALNAKVSEALDVLRNVNQPSSQGSEGNKSGSPSDLLASLSINDHL
notes: also called MBP-PAB4; source: Escherichia coli BL-21 Gold, purified (amylose resin)
In the case of B2, in experiment [2], the binding result is on record as “binds”.

B3: MBP-tagged PAB2 (natural protein, Arabidopsis thaliana, UniProt P42731 1-629, looked up)
chain: MAQVQLQGQTPNGSTAAVTSAPATSGGATATQFGNTSLYVGDLDFNVTDSQLFDAFGQMGTVVTVRVCRDLVTRRSLGYGYVNFTNPQDAARAIQELNYIPLYGKPIRVMYSHRDPSVRRSGAGNIFIKNLDESIDHKALHDTFSSFGNIVSCKVAVDSSGQSKGYGFVQYANEESAQKAIEKLNGMLLNDKQVYVGPFLRRQERDSTANKTKFTNVYVKNLAESTTDDDLKNAFGEYGKITSAVVMKDGEGKSKGFGFVNFENADDAARAVESLNGHKFDDKEWYVGRAQKKSERETELRVRYEQNLKEAADKFQSSNLYVKNLDPSISDEKLKEIFSPFGTVTSSKVMRDPNGTSKGSGFVAFATPEEATEAMSQLSGKMIESKPLYVAIAQRKEDRRVRLQAQFSQVRPVAMQPSVGPRMPVYPPGGPGIGQQMFYGQAPPAMIPPQPGYGYQQQLVPGMRPGGGPVPSFFMPMVQPQQQRPGGGRRPGGIQHSQQQNPMMQQQMHPRGRMFRYPQGRGGSGDVPPYDMGNNMPLTIGALASNLSNATPEQQRTMLGEVLYPLVEQVEAESAAKVTGMLLEMDQTEVLHLLESPEALKAKVAEAMDVLRSVAAGGATEQLASLNLS
notes: also called MBP-PAB2; source: Escherichia coli BL-21 Gold, purified (amylose resin)
On to B3, for which, in experiment [2], the binding result was “binds”.
